Measured values reported in patent US20230295348A1 (NOVIMMUNE, published 2023).

T1: human recombinant IL-2Rγ (human, UniProt P31785 23-262, limits assumed)
T1 construct: Biotinylated and captured on streptavidin plates in the ELISA; also called IL-2Rg; IL2Rg
T1 sequence (looked up): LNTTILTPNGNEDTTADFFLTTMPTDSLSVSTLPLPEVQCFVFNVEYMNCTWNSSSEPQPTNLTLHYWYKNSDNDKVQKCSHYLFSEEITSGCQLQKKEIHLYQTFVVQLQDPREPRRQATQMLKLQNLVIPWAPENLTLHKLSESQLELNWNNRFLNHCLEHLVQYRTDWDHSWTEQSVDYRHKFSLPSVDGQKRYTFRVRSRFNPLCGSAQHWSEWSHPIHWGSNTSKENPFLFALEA

B1: AM5O35 (bispecific antibody, human IgG1, kappa, lambda, L234A L235A)
heavy: not shown
light 1: not shown
light 2: QPVLTQPVSLSASPGASVSLTCTLRSDIRVRDYRIFWYQQKPGSPPQYLLRYKTDSDKQQGSGVPSRFSGSKDASANAGILLISGLQSEDEADYYCMIWHRTTGTSLVFGGGTKLTVLGQPKAAPSVTLFPPSSEELQANKATLVCLISDFYPGAVTVAWKADSSPVKAGVETTTPSKQSNNKYAASSYLSLTPEQWKSHRSYSCQVTHEGSTVEKTVAPTECS
notes: κλ-body: common heavy chain, kappa anti-IL2Rγ light chain (AM5), lambda anti-MSLN light chain (O35); also called AM5O35/N
B2: AM1N2-19 (bispecific antibody, human IgG1, kappa, lambda, L234A L235A)
heavy: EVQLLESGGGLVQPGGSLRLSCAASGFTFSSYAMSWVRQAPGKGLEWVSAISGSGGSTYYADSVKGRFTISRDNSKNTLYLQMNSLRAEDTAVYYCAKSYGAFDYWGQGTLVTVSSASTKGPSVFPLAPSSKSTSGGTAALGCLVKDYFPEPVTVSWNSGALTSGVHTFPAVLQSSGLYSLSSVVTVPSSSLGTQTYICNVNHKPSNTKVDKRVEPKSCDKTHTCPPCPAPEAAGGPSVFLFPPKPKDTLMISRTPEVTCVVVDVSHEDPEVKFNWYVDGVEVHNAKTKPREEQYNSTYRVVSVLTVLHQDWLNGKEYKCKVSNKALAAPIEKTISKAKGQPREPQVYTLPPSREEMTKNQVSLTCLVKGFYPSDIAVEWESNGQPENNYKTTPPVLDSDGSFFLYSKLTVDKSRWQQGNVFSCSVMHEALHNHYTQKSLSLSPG
light 1: DIQMTQSPSSLSASVGDRVTITCRASQSIYYYLNWYQQKPGKAPKLLIYDASALQSGVPSRFSGSGSGTDFTLTISSLQPEDFATYYCQQIDFTAGSITFGQGTKVEIKRTVAAPSVFIFPPSDEQLKSGTASVVCLLNNFYPREAKVQWKVDNALQSGNSQESVTEQDSKDSTYSLSSTLTLSKADYEKHKVYACEVTHQGLSSPVTKSFNRGEC
light 2: QSVLTQPPSVSGAPGQRVTISCTGSSSNIENTHTVHWYQQLPGTAPKLLIYDASIRPSGVPDRFSGSKSGTSASLAITGLQAEDEADYYCQSYDWLRGAQVFGGGTKLTVLGQPKAAPSVTLFPPSSEELQANKATLVCLISDFYPGAVTVAWKADSSPVKAGVETTTPSKQSNNKYAASSYLSLTPEQWKSHRSYSCQVTHEGSTVEKTVAPTECS
notes: κλ-body: common heavy chain, kappa anti-IL2Rγ light chain (AM1), lambda anti-HER2 light chain (N2-19); also called AM1N2-19/N
B3: AM7N2-19 (bispecific antibody, human IgG1, kappa, lambda, L234A L235A)
heavy: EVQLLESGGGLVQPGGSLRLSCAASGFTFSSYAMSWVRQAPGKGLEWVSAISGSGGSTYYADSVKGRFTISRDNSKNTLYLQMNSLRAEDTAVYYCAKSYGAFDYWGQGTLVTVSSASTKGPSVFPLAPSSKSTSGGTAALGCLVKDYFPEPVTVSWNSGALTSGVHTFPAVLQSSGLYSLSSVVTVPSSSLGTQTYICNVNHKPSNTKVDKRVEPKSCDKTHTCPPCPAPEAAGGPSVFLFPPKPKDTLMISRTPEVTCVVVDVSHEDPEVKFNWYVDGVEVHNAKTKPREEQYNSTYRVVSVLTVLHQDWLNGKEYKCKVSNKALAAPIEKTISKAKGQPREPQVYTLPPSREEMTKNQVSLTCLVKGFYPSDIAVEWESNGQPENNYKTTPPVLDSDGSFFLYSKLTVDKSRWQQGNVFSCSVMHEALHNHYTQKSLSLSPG
light 1: DIQLTQSPSFLSASVGDRVTITCRASQDIGIELAWYQQKPGKAPKLLIYFESHLQSGVPSRFSGSGSGTEFTLTISSLQPEDFATYYCQQIRIDPTFGQGTKVEIKRTVAAPSVFIFPPSDEQLKSGTASVVCLLNNFYPREAKVQWKVDNALQSGNSQESVTEQDSKDSTYSLSSTLTLSKADYEKHKVYACEVTHQGLSSPVTKSFNRGEC
light 2: QSVLTQPPSVSGAPGQRVTISCTGSSSNIENTHTVHWYQQLPGTAPKLLIYDASIRPSGVPDRFSGSKSGTSASLAITGLQAEDEADYYCQSYDWLRGAQVFGGGTKLTVLGQPKAAPSVTLFPPSSEELQANKATLVCLISDFYPGAVTVAWKADSSPVKAGVETTTPSKQSNNKYAASSYLSLTPEQWKSHRSYSCQVTHEGSTVEKTVAPTECS
notes: κλ-body: common heavy chain, kappa anti-IL2Rγ light chain (AM7), lambda anti-HER2 light chain (N2-19); also called AM7N2-19/N
B4: AM2N2-19 (bispecific antibody, human IgG1, kappa, lambda, L234A L235A)
heavy: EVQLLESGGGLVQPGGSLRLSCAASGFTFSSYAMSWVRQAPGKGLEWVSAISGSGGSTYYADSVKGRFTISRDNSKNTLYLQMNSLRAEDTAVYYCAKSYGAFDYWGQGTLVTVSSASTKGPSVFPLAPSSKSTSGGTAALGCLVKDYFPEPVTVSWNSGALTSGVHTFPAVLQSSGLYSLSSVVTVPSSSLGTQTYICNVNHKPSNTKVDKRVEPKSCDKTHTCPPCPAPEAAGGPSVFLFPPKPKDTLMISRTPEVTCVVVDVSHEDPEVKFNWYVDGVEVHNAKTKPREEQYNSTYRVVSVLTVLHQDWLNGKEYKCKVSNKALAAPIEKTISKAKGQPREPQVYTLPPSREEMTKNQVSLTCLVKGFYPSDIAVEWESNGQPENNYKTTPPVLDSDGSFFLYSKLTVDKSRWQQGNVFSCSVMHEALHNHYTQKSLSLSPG
light 1: DIQLTQSPSFLSASVGDRVTITCRASQTIDAPLRWYQQKPGKAPKLLIYLTSSLQSGVPSRFSGSGSGTEFTLTISSLQPEDFATYYCQQGYAAGPSTFGQGTKVEIKRTVAAPSVFIFPPSDEQLKSGTASVVCLLNNFYPREAKVQWKVDNALQSGNSQESVTEQDSKDSTYSLSSTLTLSKADYEKHKVYACEVTHQGLSSPVTKSFNRGEC
light 2: QSVLTQPPSVSGAPGQRVTISCTGSSSNIENTHTVHWYQQLPGTAPKLLIYDASIRPSGVPDRFSGSKSGTSASLAITGLQAEDEADYYCQSYDWLRGAQVFGGGTKLTVLGQPKAAPSVTLFPPSSEELQANKATLVCLISDFYPGAVTVAWKADSSPVKAGVETTTPSKQSNNKYAASSYLSLTPEQWKSHRSYSCQVTHEGSTVEKTVAPTECS
notes: κλ-body: common heavy chain, kappa anti-IL2Rγ light chain (AM2), lambda anti-HER2 light chain (N2-19); also called AM2N2-19/N
B5: AM5N2-19 (bispecific antibody, human IgG1, kappa, lambda, L234A L235A)
heavy: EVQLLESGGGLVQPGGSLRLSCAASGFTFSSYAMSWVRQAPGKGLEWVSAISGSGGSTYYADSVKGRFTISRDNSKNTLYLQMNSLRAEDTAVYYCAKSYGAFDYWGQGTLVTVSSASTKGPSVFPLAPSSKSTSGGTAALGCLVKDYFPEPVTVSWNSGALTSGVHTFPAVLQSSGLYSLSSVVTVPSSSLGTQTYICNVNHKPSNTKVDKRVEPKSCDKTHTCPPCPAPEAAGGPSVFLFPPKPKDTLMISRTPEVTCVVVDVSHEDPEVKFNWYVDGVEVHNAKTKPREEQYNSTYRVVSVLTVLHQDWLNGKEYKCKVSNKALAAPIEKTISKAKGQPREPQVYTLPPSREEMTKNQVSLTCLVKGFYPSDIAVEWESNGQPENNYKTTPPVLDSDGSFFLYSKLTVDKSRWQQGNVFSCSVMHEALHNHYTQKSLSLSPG
light 1: not shown
light 2: QSVLTQPPSVSGAPGQRVTISCTGSSSNIENTHTVHWYQQLPGTAPKLLIYDASIRPSGVPDRFSGSKSGTSASLAITGLQAEDEADYYCQSYDWLRGAQVFGGGTKLTVLGQPKAAPSVTLFPPSSEELQANKATLVCLISDFYPGAVTVAWKADSSPVKAGVETTTPSKQSNNKYAASSYLSLTPEQWKSHRSYSCQVTHEGSTVEKTVAPTECS
notes: κλ-body: common heavy chain, kappa anti-IL2Rγ light chain (AM5), lambda anti-HER2 light chain (N2-19); also called AM5N2-19/N
B6: AM3N2-19 (bispecific antibody, human IgG1, kappa, lambda, L234A L235A)
heavy: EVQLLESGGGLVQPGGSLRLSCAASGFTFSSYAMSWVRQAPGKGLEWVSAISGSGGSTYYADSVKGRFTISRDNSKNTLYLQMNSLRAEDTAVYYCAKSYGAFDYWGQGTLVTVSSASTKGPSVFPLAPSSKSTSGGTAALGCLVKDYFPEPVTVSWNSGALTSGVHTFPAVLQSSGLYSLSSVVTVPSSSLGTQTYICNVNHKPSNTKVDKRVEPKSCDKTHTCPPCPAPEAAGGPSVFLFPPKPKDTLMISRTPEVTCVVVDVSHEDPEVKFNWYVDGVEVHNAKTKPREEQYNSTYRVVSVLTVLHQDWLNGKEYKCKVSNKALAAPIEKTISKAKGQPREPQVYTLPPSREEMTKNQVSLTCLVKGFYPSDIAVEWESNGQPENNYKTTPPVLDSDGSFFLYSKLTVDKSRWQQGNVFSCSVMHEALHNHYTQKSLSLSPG
light 1: DIQMTQSPSTLSASVGDTVTITCRASHYITTWLAWYQQKPGKAPKLLIYDVSSLESGVPSRFRGRGSGTEFTLTISSLQPDDFATYYCQQYESYSPTFGQGTKVEIKRTVAAPSVFIFPPSDEQLKSGTASVVCLLNNFYPREAKVQWKVDNALQSGNSQESVTEQDSKDSTYSLSSTLTLSKADYEKHKVYACEVTHQGLSSPVTKSFNRGEC
light 2: QSVLTQPPSVSGAPGQRVTISCTGSSSNIENTHTVHWYQQLPGTAPKLLIYDASIRPSGVPDRFSGSKSGTSASLAITGLQAEDEADYYCQSYDWLRGAQVFGGGTKLTVLGQPKAAPSVTLFPPSSEELQANKATLVCLISDFYPGAVTVAWKADSSPVKAGVETTTPSKQSNNKYAASSYLSLTPEQWKSHRSYSCQVTHEGSTVEKTVAPTECS
notes: κλ-body: common heavy chain, kappa anti-IL2Rγ light chain (AM3), lambda anti-HER2 light chain (N2-19); also called AM3N2-19/N
B7: AM9N2-19 (bispecific antibody, human IgG1, kappa, lambda, L234A L235A)
heavy: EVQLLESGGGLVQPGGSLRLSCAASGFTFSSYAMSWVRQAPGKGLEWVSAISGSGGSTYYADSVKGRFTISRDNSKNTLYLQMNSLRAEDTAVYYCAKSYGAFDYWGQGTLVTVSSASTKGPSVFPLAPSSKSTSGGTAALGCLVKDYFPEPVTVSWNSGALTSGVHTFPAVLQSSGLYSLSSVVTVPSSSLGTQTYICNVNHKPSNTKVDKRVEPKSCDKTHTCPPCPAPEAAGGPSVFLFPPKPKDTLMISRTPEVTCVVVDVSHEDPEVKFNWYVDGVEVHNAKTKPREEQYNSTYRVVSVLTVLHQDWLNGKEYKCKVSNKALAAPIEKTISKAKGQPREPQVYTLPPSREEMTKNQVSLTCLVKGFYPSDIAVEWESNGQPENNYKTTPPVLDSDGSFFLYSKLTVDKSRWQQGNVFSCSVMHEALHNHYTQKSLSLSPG
light 1: not shown
light 2: QSVLTQPPSVSGAPGQRVTISCTGSSSNIENTHTVHWYQQLPGTAPKLLIYDASIRPSGVPDRFSGSKSGTSASLAITGLQAEDEADYYCQSYDWLRGAQVFGGGTKLTVLGQPKAAPSVTLFPPSSEELQANKATLVCLISDFYPGAVTVAWKADSSPVKAGVETTTPSKQSNNKYAASSYLSLTPEQWKSHRSYSCQVTHEGSTVEKTVAPTECS
notes: κλ-body: common heavy chain, kappa anti-IL2Rγ light chain (AM9), lambda anti-HER2 light chain (N2-19); also called AM9N2-19/N
B8: AM8N2-19 (bispecific antibody, human IgG1, kappa, lambda, L234A L235A)
heavy: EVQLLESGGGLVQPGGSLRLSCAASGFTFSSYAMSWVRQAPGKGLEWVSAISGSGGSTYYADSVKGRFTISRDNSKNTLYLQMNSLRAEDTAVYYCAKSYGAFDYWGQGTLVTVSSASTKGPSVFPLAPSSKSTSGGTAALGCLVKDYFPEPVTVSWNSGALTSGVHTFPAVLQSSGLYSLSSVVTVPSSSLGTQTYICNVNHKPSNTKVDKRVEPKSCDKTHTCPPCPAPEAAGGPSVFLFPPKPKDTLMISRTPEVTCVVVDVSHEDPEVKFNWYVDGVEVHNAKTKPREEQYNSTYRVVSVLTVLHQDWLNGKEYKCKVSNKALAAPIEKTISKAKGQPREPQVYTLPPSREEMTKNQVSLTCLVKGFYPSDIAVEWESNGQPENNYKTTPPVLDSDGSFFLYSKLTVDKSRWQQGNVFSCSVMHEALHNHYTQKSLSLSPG
light 1: EIVLTQSPGTLSLSPGERATLSCRASQDVATRGLAWYQQKPGQAPRLLIYGASSRATGIPDRFSGSGSGTDFTLTISRLEPEDFAVYYCQQYELEHPATFGQGTKVEIKRTVAAPSVFIFPPSDEQLKSGTASVVCLLNNFYPREAKVQWKVDNALQSGNSQESVTEQDSKDSTYSLSSTLTLSKADYEKHKVYACEVTHQGLSSPVTKSFNRGEC
light 2: QSVLTQPPSVSGAPGQRVTISCTGSSSNIENTHTVHWYQQLPGTAPKLLIYDASIRPSGVPDRFSGSKSGTSASLAITGLQAEDEADYYCQSYDWLRGAQVFGGGTKLTVLGQPKAAPSVTLFPPSSEELQANKATLVCLISDFYPGAVTVAWKADSSPVKAGVETTTPSKQSNNKYAASSYLSLTPEQWKSHRSYSCQVTHEGSTVEKTVAPTECS
notes: κλ-body: common heavy chain, kappa anti-IL2Rγ light chain (AM8), lambda anti-HER2 light chain (N2-19); also called AM8N2-19/N
B9: AM11N2-19 (bispecific antibody, human IgG1, kappa, lambda, L234A L235A)
heavy: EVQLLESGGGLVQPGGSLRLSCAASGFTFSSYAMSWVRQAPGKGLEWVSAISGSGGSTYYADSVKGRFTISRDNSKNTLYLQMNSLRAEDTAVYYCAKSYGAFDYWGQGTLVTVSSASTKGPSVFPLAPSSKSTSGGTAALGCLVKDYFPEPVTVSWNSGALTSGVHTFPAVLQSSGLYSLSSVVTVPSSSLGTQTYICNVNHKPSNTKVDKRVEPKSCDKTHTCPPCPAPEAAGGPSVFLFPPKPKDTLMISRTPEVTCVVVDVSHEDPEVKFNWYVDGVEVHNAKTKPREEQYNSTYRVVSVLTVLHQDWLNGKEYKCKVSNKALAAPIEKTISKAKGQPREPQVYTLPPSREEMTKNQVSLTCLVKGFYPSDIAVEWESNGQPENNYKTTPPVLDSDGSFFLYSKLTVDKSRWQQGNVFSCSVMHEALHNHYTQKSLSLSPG
light 1: EIVLTQSPGTLSLSPGERATLSCRASQNVNHNFLTWYQQKPGQAPRLLIYSASARATGIPDRFSGSGSGTDFTLTISRLEPEDFAVYYCQQFNYAPLTFGQGTKVEIKRTVAAPSVFIFPPSDEQLKSGTASVVCLLNNFYPREAKVQWKVDNALQSGNSQESVTEQDSKDSTYSLSSTLTLSKADYEKHKVYACEVTHQGLSSPVTKSFNRGEC
light 2: QSVLTQPPSVSGAPGQRVTISCTGSSSNIENTHTVHWYQQLPGTAPKLLIYDASIRPSGVPDRFSGSKSGTSASLAITGLQAEDEADYYCQSYDWLRGAQVFGGGTKLTVLGQPKAAPSVTLFPPSSEELQANKATLVCLISDFYPGAVTVAWKADSSPVKAGVETTTPSKQSNNKYAASSYLSLTPEQWKSHRSYSCQVTHEGSTVEKTVAPTECS
notes: κλ-body: common heavy chain, kappa anti-IL2Rγ light chain (AM11), lambda anti-HER2 light chain (N2-19); also called AM11N2-19/N
B10: AM6N2-19 (bispecific antibody, human IgG1, kappa, lambda, L234A L235A)
heavy: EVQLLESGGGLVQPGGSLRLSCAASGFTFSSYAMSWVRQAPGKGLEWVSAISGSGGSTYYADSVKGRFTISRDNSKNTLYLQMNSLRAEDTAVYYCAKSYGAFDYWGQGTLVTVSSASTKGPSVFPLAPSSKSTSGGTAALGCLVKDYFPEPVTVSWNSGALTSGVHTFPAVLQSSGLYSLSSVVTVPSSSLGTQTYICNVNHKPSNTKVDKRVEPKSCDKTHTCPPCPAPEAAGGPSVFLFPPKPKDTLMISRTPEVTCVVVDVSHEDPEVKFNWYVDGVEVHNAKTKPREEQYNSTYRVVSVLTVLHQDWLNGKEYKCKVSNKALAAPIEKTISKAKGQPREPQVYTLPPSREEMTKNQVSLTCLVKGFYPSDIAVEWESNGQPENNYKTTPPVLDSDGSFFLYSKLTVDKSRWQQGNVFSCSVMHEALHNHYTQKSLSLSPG
light 1: not shown
light 2: QSVLTQPPSVSGAPGQRVTISCTGSSSNIENTHTVHWYQQLPGTAPKLLIYDASIRPSGVPDRFSGSKSGTSASLAITGLQAEDEADYYCQSYDWLRGAQVFGGGTKLTVLGQPKAAPSVTLFPPSSEELQANKATLVCLISDFYPGAVTVAWKADSSPVKAGVETTTPSKQSNNKYAASSYLSLTPEQWKSHRSYSCQVTHEGSTVEKTVAPTECS
notes: κλ-body: common heavy chain, kappa anti-IL2Rγ light chain (AM6), lambda anti-HER2 light chain (N2-19); also called AM6N2-19/N
B11: AM10N2-19 (bispecific antibody, human IgG1, kappa, lambda, L234A L235A)
heavy: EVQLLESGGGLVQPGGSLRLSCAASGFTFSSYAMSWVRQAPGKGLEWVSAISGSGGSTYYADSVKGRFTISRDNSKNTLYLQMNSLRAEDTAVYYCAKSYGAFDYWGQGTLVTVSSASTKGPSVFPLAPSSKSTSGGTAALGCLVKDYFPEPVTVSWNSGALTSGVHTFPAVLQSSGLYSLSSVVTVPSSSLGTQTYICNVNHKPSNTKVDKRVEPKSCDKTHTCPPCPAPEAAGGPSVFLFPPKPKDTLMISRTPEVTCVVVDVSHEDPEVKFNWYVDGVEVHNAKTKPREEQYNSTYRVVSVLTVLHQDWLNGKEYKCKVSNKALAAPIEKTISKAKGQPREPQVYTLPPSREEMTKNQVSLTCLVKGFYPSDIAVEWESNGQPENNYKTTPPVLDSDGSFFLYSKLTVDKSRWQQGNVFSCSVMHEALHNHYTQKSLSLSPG
light 1: not shown
light 2: QSVLTQPPSVSGAPGQRVTISCTGSSSNIENTHTVHWYQQLPGTAPKLLIYDASIRPSGVPDRFSGSKSGTSASLAITGLQAEDEADYYCQSYDWLRGAQVFGGGTKLTVLGQPKAAPSVTLFPPSSEELQANKATLVCLISDFYPGAVTVAWKADSSPVKAGVETTTPSKQSNNKYAASSYLSLTPEQWKSHRSYSCQVTHEGSTVEKTVAPTECS
notes: κλ-body: common heavy chain, kappa anti-IL2Rγ light chain (AM10), lambda anti-HER2 light chain (N2-19); also called AM10N2-19/N
B12: AM4N2-19 (bispecific antibody, human IgG1, kappa, lambda, L234A L235A)
heavy: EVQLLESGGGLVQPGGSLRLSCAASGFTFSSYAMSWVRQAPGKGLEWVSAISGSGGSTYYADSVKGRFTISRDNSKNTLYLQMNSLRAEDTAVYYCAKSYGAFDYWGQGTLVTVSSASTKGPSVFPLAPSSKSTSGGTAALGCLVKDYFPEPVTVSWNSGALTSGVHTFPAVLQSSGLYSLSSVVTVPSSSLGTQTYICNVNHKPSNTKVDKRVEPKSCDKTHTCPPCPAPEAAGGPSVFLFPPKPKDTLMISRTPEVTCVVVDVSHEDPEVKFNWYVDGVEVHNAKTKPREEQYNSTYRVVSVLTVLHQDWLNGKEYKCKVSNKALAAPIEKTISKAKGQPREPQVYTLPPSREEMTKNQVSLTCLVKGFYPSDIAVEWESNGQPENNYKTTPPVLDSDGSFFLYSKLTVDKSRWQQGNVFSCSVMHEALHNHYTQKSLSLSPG
light 1: DIQMTQSPSTLSASVGDRVTITCRASQTIYGPLNWYQQKPGKAPKLLIYSTSYLESGVPSRFSGSGSGTEFTLTISSLQPDDFATYYCQQAGYASAPTFGQGTKVEIKRTVAAPSVFIFPPSDEQLKSGTASVVCLLNNFYPREAKVQWKVDNALQSGNSQESVTEQDSKDSTYSLSSTLTLSKADYEKHKVYACEVTHQGLSSPVTKSFNRGEC
light 2: QSVLTQPPSVSGAPGQRVTISCTGSSSNIENTHTVHWYQQLPGTAPKLLIYDASIRPSGVPDRFSGSKSGTSASLAITGLQAEDEADYYCQSYDWLRGAQVFGGGTKLTVLGQPKAAPSVTLFPPSSEELQANKATLVCLISDFYPGAVTVAWKADSSPVKAGVETTTPSKQSNNKYAASSYLSLTPEQWKSHRSYSCQVTHEGSTVEKTVAPTECS
notes: κλ-body: common heavy chain, kappa anti-IL2Rγ light chain (AM4), lambda anti-HER2 light chain (N2-19); also called AM4N2-19/N
B13: AM5O38 (bispecific antibody, human IgG1, kappa, lambda, L234A L235A)
heavy: not shown
light 1: not shown
light 2: QPVLTQPASLSASPGASASLTCTLRSGINVRDYRIFWYQQKPGSPPQYLLRYKSASDKQQGSGVPSRFSGSKDASANAGILLISGLQSEDEADYYCMIWHHDSEGHAFVFGGGTKLTVLGQPKAAPSVTLFPPSSEELQANKATLVCLISDFYPGAVTVAWKADSSPVKAGVETTTPSKQSNNKYAASSYLSLTPEQWKSHRSYSCQVTHEGSTVEKTVAPTECS
notes: κλ-body: common heavy chain, kappa anti-IL2Rγ light chain (AM5), lambda anti-MSLN light chain (O38); also called AM5O38/N
B14: AM5O41 (bispecific antibody, human IgG1, kappa, lambda, L234A L235A)
heavy: not shown
light 1: not shown
light 2: SYVLTQPPSVSVAPGKTARITCGGNKIGHRAVHWYQQKPGQAPVLVIYYTYERPSGIPERFSGSNSGNTATLTISRVEAGDEADYYCQVWDWYSEGGVVFGGGTKLTVLGQPKAAPSVTLFPPSSEELQANKATLVCLISDFYPGAVTVAWKADSSPVKAGVETTTPSKQSNNKYAASSYLSLTPEQWKSHRSYSCQVTHEGSTVEKTVAPTECS
notes: κλ-body: common heavy chain, kappa anti-IL2Rγ light chain (AM5), lambda anti-MSLN light chain (O41); also called AM5O41/N

Key:
human recombinant IL-2Rγ = biological target: T1, human recombinant IL-2Rγ; experiment: direct ELISA, biotinylated recombinant protein on streptavidin plates
human recombinant HER2 = biological target: T2, human recombinant HER2 (human, UniProt P04626 23-652); experiment: as above
T2 construct: Biotinylated and captured on streptavidin plates in the ELISA; also called human epidermal growth factor receptor 2

Row | Binder | binding result (human recombinant IL-2Rγ) | binding result (human recombinant HER2)
1 | B1 | binds | –
2 | B2 | binds | binds
3 | B3 | binds | binds
4 | B4 | binds | binds
5 | B5 | binds | binds
6 | B6 | binds | binds
7 | B7 | binds | binds
8 | B8 | binds | binds
9 | B9 | binds | binds
10 | B10 | binds | binds
11 | B11 | binds | binds
12 | B12 | binds | binds
13 | B13 | binds | –
14 | B14 | binds | –
